Target: the molecule itself
Assay: gel filtration chromatography (self-association, homodimer)

B1: vSET triple mutant KR(M)R-to-AA(M)A (aa 85-88) (enzyme)
chain: MFNDRVIVKKSPLGGYGVFARKSFEKGELVEECLCIVRHNDDWGTALEDYLFSRKNMSAMALGFGAIFNHSKDPNARHELTAGLAAMAIFTIKPIAIGEEITISYGDDYWLSRPRLTQN
notes: elutes as a dimer like the wild type; also called KR(M)R/AA(M)A
B1: binds.

B2: recombinant wild-type vSET expressed in E. coli BL21 (enzyme)
chain: MFNDRVIVKKSPLGGYGVFARKSFEKGELVEECLCIVRHNDDWGTALEDYLFSRKNMSAMALGFGAIFNHSKDPNARHELTAGLKRMRIFTIKPIAIGEEITISYGDDYWLSRPRLTQN
notes: also called hexa-histidine tagged vSET; not shown: tag in the
B2: binds.

— US20110123511A1 (ICAHN SCHOOL OF MEDICINE AT MOUNT SINAI, published 2011)
